B1: Hairpin Ribozyme (parent)
chain: GUCCUCUUUCACGUGCGCGUGAAAGAGAGAAGUGAACCAGAGAAACACACGUUGUGGUAUAUUACCUGGUA

Variants of: B1
Test: self-cleavage, relative activity (ratio to wild type); higher = more cleavage; co-transcriptional

| Variant | self-cleavage |
| --- | --- |
| C4G A26C | 0.259 |
| C4U C50A | 0.203 |
| C4U C50U | 0.213 |
| U5A A24G | 0.381 |
| U5A A24C | 0.314 |
| C4G G54U | 0.228 |
| C4G C65U | 0.224 |
| C4G C65G | 0.178 |
| C4G C65A | 0.206 |
| C4G C50G | 0.0987 |
| C3G C38G | 0.0857 |
| C3G C38U | 0.133 |
| C3U G42C | 0.218 |
| C3G C10U | 0.213 |
| C4A A59G | 0.145 |
| C4A A23C | 0.222 |
| C4U C37A | 0.158 |
| C4U C65U | 0.175 |
| C3U U8G | 0.245 |
| C4U A59C | 0.126 |
| C3G C16U | 0.305 |
| C3U A24U | 0.491 |
| C3U A24G | 0.494 |
| C4A U7G | 0.221 |

| Variant | self-cleavage |
| --- | --- |
| C4U A64U | 0.205 |
| C4G U55G | 0.113 |
| C3G U70G | 0.272 |
| C4U A44G | 0.269 |
| U5A A47C | 0.187 |
| C3G G68C | 0.188 |
| C4G G21A | 0.0893 |
| C3G G29A | 0.148 |
| C3U C10A | 0.276 |
| C3U C10U | 0.454 |
| C4A G42A | 0.111 |
| C4G A61U | 0.0796 |
| C4G A61C | 0.164 |
| C4G A61G | 0.098 |
| C4A A43C | 0.0588 |
| C3G G27U | 0.164 |
| C4G U7A | 0.143 |
| C4G U7C | 0.15 |
| C4U U20G | 0.213 |
| C4G U33C | 0.0651 |
| C4G U33G | 0.13 |
| C3U U20A | 0.374 |
| C3U A28G | 0.554 |
| C3U A28U | 0.582 |

| Variant | self-cleavage |
| --- | --- |
| U5A A45U | 0.141 |
| U5A A45G | 0.0727 |
| C3U G27C | 0.177 |
| C3U G27A | 0.187 |
| C3G A43G | 0.0516 |
| C3G A43U | 0.111 |
| C4G G27C | 0.653 |
| U5A A26C | 0.491 |
| C4G U60A | 0.105 |
| C4G U60G | 0.147 |
| C3U G54A | 0.251 |
| C4G G51C | 0.207 |
| C4G G51U | 0.223 |
| C3U U7A | 0.427 |
| C4U C38G | 0.0751 |
| C4U C38A | 0.13 |
| C4G C16U | 0.194 |
| C4G C16A | 0.304 |
| C4G A71C | 0.483 |
| C4U U53G | 0.412 |
| U5A | 0.368 |
| C4A A22G | 0.222 |
| C4A A22U | 0.22 |
| C4A A22C | 0.131 |

| Variant | self-cleavage |
| --- | --- |
| C4U U7A | 0.296 |
| C4G G13C | 0.178 |
| C4A U67G | 0.144 |
| C4A U67A | 0.155 |
| C4A G25U | 0.214 |
| C4A C46A | 0.146 |
| C4A A39C | 0.166 |
| C4A G15C | 0.358 |
| C3G A59C | 0.064 |
| U5A A31U | 0.14 |
| C3U G51A | 0.467 |
| C4U U62G | 0.181 |
| C4U U62C | 0.16 |
| C3G G42U | 0.188 |
| C4G G19C | 0.194 |
| U5A A36G | 0.427 |
| C4A G19A | 0.174 |
| C4G G56U | 0.148 |
| C4G G56A | 0.249 |
| C4A A31U | 0.245 |
| C3G U9G | 0.0419 |
| C3G G40U | 0.0655 |
| C3G G40C | 0.147 |
| C3G G40A | 0.0852 |

| Variant | self-cleavage |
| --- | --- |
| C3U G68A | 0.183 |
| C4U A30G | 0.128 |
| C4U A30C | 0.104 |
| C3G G34C | 0.911 |
| C4A G69A | 0.141 |
| C3U U5G | 0.318 |
| C3U A44G | 0.254 |
| C4U C18A | 0.4 |
| C3G G17U | 0.365 |
| U5A A41U | 0.818 |
| C4A A49G | 0.157 |
| C4A A49C | 0.213 |
| C3U A43C | 0.161 |
| C3U A64C | 0.0981 |
| C3U A64U | 0.238 |
| C4A A64G | 0.134 |
| C3U U67A | 0.0952 |
| C4U G54A | 0.166 |
| C4U G54C | 0.364 |
| C4A A47U | 0.0985 |
| C3G G15A | 0.281 |
| C4G U5G | 0.0498 |
| C4G U5A | 0.203 |
| C4U A22U | 0.362 |

| Variant | self-cleavage |
| --- | --- |
| C3U U53G | 0.517 |
| C4A A44C | 0.0924 |
| C4A A44G | 0.0937 |
| C4U A11G | 0.425 |
| C4U A11U | 0.256 |
| C4U A39U | 0.188 |
| C4A C37G | 0.0599 |
| C4A C37A | 0.159 |
| C4U A49U | 0.128 |
| C4U A49C | 0.259 |
| C4A C66A | 0.146 |
| C4U U55A | 0.0732 |
| C3G A47G | 0.179 |
| C4U U9G | 0.178 |
| C3G U5C | 0.132 |
| C3G G69U | 0.141 |
| C4G A23U | 0.147 |
| C3G U20C | 0.302 |
| U5A A43G | 0.0784 |
| U5A A43C | 0.113 |
| C4A U70A | 0.25 |
| C4A U70C | 0.119 |
| C4A G51C | 0.261 |
| C4U U52C | 0.481 |

| Variant | self-cleavage |
| --- | --- |
| C4U U52G | 0.209 |
| C3U U9G | 0.337 |
| C4U C46A | 0.164 |
| C4U C46G | 0.121 |
| C4A A71G | 0.346 |
| C3U U55C | 0.153 |
| C4U A41G | 0.299 |
| C4A U62A | 0.167 |
| C4A U62C | 0.118 |
| C4G A30G | 0.069 |
| C3G U14C | 0.238 |
| C3U C18U | 0.487 |
| C4U U33G | 0.0889 |
| C4U U33A | 0.283 |
| C4G G29C | 0.0848 |
| C4G U58G | 0.241 |
| C4G G57C | 0.143 |
| C4G A45U | 0.112 |
| C4G | 0.225 |
| C4U | 0.371 |
| C4A | 0.218 |
| C4G U67C | 0.0875 |
| C4U A43G | 0.141 |
